B1: CD3 × CD33-BspAb45 (bispecific antibody)
chain 1: EVQLVESGGGLVQPGGSLRLSCAASGFTFSRYSMNWVRQAPGKCLEWVSYISSSSSSIYYADSVKGRFTISRDNAKNSLYLQMNSLRDEDTAVYYCARDRRATLDYWGQGTLVTVSSGGGGSGGGGSGGGGSGGGGSNFMLTQPHSVSESPGKTVTISCTRSSGSIASNYVQWYQQRPGSSPTTVIYEDNQRPSGVPDRFSGSIDSSSNSASLTISGLKTEDEADYYCQSYDSSNHVFGCGTKLTVLDKTHTCPPCPAPEFEGGPSVFLFPPKPKDTLMISRTPEVTCVVVDVSHEDPEVKFNWYVDGVEVHNAKTKPREEQYNSTYRVVSVLTVLHQDWLNGKEYKCKVSNKALPASIEKTISKAKGQPREPQVYTLPPCREEMTKNQVSLWCLVKGFYPSDIAVEWESNGQPENNYKTTPPVLDSDGSFFLYSKLTVDKSRWQQGNVFSCSVMHEALHNHYTQKSLSLSPGK
chain 2: EVQLVQSGAEVKKPGSSVKVSCKASGYTITDSNIHWVRQAPGQSLEWIGYIYPYNGGTDYNQKFKNRATLTVDNPTNTAYMELSSLRSEDTAFYYCVNGNPWLAYWGQGTLVTVSSASTKGPSVFPLAPSSKSTSGGTAALGCLVKDYFPEPVTVSWNSGALTSGVHTFPAVLQSSGLYSLSSVVTVPSSSLGTQTYICNVNHKPSNTKVDKRVEPKSCDKTHTCPPCPAPEFEGGPSVFLFPPKPKDTLMISRTPEVTCVVVDVSHEDPEVKFNWYVDGVEVHNAKTKPREEQYNSTYRVVSVLTVLHQDWLNGKEYKCKVSNKALPASIEKTISKAKGQPREPQVCTLPPSREEMTKNQVSLSCAVKGFYPSDIAVEWESNGQPENNYKTTPPVLDSDGSFFLVSKLTVDKSRWQQGNVFSCSVMHEALHNRFTQKSLSLSPGK
chain 3: DIQLTQSPSTLSASVGDRVTITCRASESLDNYGIRFLTWFQQKPGKAPKLLMYAASNQGSGVPSRFSGSGSGTEFTLTISSLQPDDFATYYCQQTKEVPWSFGQGTKVEVKRTVAAPSVFIFPPSDEQLKSGTASVVCLLNNFYPREAKVQWKVDNALQSGNSQESVTEQDSKDSTYSLSSTLTLSKADYEKHKVYACEVTHQGLSSPVTKSFNRGEC
B2: CD3 × CD33-BspAb85 (bispecific antibody)
chain 1: EVQLVESGGGLVKPGGSLRLSCAASGFTFSSYSMNWVRQAPGKCLEWVSSISRSSGYIFYADSVKGRFTISRDNAKNSLYLQMNSLRAEDTAVYYCVRERVGAGFDYWGQGTLVTVSSGGGGSGGGGSGGGGSGGGGSNFMLTQPHSVSESPGKTVAISCTRSSGSIASNYVQWYQQRPGSSPTAVIYEDNQRPSGVPDRFSGSIDSSSNSAFLTISGLKTEDEADYYCQSYDSSNRVFGCGTKLTVLDKTHTCPPCPAPEFEGGPSVFLFPPKPKDTLMISRTPEVTCVVVDVSHEDPEVKFNWYVDGVEVHNAKTKPREEQYNSTYRVVSVLTVLHQDWLNGKEYKCKVSNKALPASIEKTISKAKGQPREPQVYTLPPCREEMTKNQVSLWCLVKGFYPSDIAVEWESNGQPENNYKTTPPVLDSDGSFFLYSKLTVDKSRWQQGNVFSCSVMHEALHNHYTQKSLSLSPGK
chain 2: B1 chain 2
chain 3: B1 chain 3
B3: CD3 × CD33-BspAb52 (bispecific antibody)
chain 1: not shown
chain 2: B1 chain 2
chain 3: B1 chain 3
B4: CD3 × CD33-BspAb51 (bispecific antibody)
chain 1: not shown
chain 2: B1 chain 2
chain 3: B1 chain 3
B5: CD3 × CD33-BspAb72 (bispecific antibody)
chain 1: EVQLVESGGGLVQPGGSLRLSCAASGFTFSSYSMNWVRQAPGKCLEWVSYISSSSSTIYYADSVKGRFTISRDNAKNSLYLQMNSLRDEDTAVYYCARDGPVDYGMDVWGQGTTVTVSSGGGGSGGGGSGGGGSGGGGSSYELTQPPSVSVSPGQTARITCSGDALPKQYTYWYQQKPGQAPVLVIYKDSERPSGIPERFSGSSSGTTVTLTISGVQAEDEADYYCQSADSSGTYRVFGCGTKLTVLDKTHTCPPCPAPEFEGGPSVFLFPPKPKDTLMISRTPEVTCVVVDVSHEDPEVKFNWYVDGVEVHNAKTKPREEQYNSTYRVVSVLTVLHQDWLNGKEYKCKVSNKALPASIEKTISKAKGQPREPQVYTLPPCREEMTKNQVSLWCLVKGFYPSDIAVEWESNGQPENNYKTTPPVLDSDGSFFLYSKLTVDKSRWQQGNVFSCSVMHEALHNHYTQKSLSLSPGK
chain 2: B1 chain 2
chain 3: B1 chain 3
B6: CD3 × CD33-BspAb66 (bispecific antibody, human IgG1, kappa)
chain: EVQLVESGGGLVQPGRSLRLSCAASGFTFDDYAMHWVRQAPGKGLEWVSGISWNSGSIGYADSVKGRFTISRDNAKNSLYLQMNSLRAEDTALYYCAKDSRGYGDYRLGGAYWGQGTLVTVSSGGGGSGGGGSGGGGSGGGGSEIVMTQSPATLSVSPGERATLSCRASQSVSSNLAWYQQKPGQAPRLLIYGASTRATGIPARFSGSGSGTEFTLTISSLQSEDFAVYYCQQYNNWPWTFGQGTKVEIKTSGPGGPDKTHTCPPCPAPEFEGGPSVFLFPPKPKDTLMISRTPEVTCVVVDVSHEDPEVKFNWYVDGVEVHNAKTKPREEQYNSTYRVVSVLTVLHQDWLNGKEYKCKVSNKALPASIEKTISKAKGQPREPQVYTLPPCREEMTKNQVSLWCLVKGFYPSDIAVEWESNGQPENNYKTTPPVLDSDGSFFLYSKLTVDKSRWQQGNVFSCSVMHEALHNHYTQKSLSLSPGK
heavy: B1 chain 2
light: B1 chain 3
B7: CD3 × CD33-BspAb73 (bispecific antibody)
chain 1: EVQLVESGGGLVKPGGSLRLSCAASGFTFSSYSMNWVRQAPGKCLEWVSSVNSRGSYIYYADSVKGRFTISRDNAKDSLYLQMNSLRADDTAVYYCARDRRELLLDYWGQGTLVTVSSGGGGSGGGGSGGGGSGGGGSSYELTQPPSVSVSPGQTARITCSGDALPKKYAYWYQQKSGQAPVLVIYEDSKRPSGIPERFSGSSSGTMATLTISGAQVEDEADYYCYSTDSSGNHSWVFGCGTKLTVLDKTHTCPPCPAPEFEGGPSVFLFPPKPKDTLMISRTPEVTCVVVDVSHEDPEVKFNWYVDGVEVHNAKTKPREEQYNSTYRVVSVLTVLHQDWLNGKEYKCKVSNKALPASIEKTISKAKGQPREPQVYTLPPCREEMTKNQVSLWCLVKGFYPSDIAVEWESNGQPENNYKTTPPVLDSDGSFFLYSKLTVDKSRWQQGNVFSCSVMHEALHNHYTQKSLSLSPGK
chain 2: B1 chain 2
chain 3: B1 chain 3

Experiments:
[1] = biological target: T1, CD3 on human donor PBMC / Pan T effector cells (human, UniProt P07766 23-207; P09693 23-182; P04234 22-171; P20963 22-164); experiment: cell-based or functional assay
[2] = biological target: T1, CD3 on human donor PBMC / Pan T …; experiment: cell-based or functional assay; remark: listed apart in the source

T1 sequence (P07766 23-207, chain 1 of 4): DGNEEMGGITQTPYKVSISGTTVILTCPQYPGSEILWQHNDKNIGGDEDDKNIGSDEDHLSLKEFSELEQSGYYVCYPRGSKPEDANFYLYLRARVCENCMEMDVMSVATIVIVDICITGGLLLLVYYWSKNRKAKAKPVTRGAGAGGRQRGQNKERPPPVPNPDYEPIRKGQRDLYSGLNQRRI
T1 sequence (P09693 23-182, chain 2 of 4): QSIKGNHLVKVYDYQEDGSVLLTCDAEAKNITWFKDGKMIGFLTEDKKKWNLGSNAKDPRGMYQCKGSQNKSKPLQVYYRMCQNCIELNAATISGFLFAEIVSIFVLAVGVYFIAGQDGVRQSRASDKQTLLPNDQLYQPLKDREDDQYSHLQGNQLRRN
T1 sequence (P04234 22-171, chain 3 of 4): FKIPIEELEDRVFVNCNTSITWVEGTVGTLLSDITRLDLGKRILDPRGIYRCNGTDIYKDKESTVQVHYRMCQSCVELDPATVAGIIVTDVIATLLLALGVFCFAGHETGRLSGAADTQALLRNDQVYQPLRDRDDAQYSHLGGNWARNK
T1 sequence (P20963 22-164, chain 4 of 4): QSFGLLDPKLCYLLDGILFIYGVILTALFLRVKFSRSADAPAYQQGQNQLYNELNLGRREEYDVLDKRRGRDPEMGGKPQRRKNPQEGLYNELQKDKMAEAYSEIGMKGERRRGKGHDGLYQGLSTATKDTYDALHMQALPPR

Row | Binder | Cytokine Release Assay (TNFα) Donor 0 EC50 [1] [nM] | Cytokine Release Assay (TNFα) Donor 0 gMFI max [1] [gMFI] | Cytokine Release Assay (TNFα) Donor 1 gMFI max [1] [gMFI] | Cytokine Release Assay (TNFα) Donor 2 EC50 [1] [nM] | Cytokine Release Assay (TNFα) Donor 2 gMFI max [1] [gMFI] | Cytokine Release Assay (TNFα) Donor 3 EC50 [1] [nM] | Cytokine Release Assay (TNFα) Donor 3 gMFI max [1] [gMFI] | Cytokine Release Assay (IL2) Donor 0 EC50 [2] [nM] | Cytokine Release Assay (IL2) Donor 0 gMFI max [2] [gMFI] | Cytokine Release Assay (IL2) Donor 1 EC50 [2] [nM] | Cytokine Release Assay (IL2) Donor 1 gMFI max [2] [gMFI] | Cytokine Release Assay (IL2) Donor 2 EC50 [2] [nM] | Cytokine Release Assay (IL2) Donor 2 gMFI max [2] [gMFI] | Cytokine Release Assay (IL2) Donor 3 EC50 [2] [nM] | Cytokine Release Assay (IL2) Donor 3 gMFI max [2] [gMFI] | Cytokine Release Assay (TNFα) Donor 1 EC50 [1] [nM]
1 | B1 | 0.0919 | 71300 | 4850 | 0.0334 | 12100 | 0.0216 | 31800 | 0.0539 | 50900 | 0.0869 | 22200 | 0.0204 | 26200 | 0.0205 | 67900 | 
2 | B2 | 0.114 | 44800 | 5490 | 0.0497 | 18400 | 0.0635 | 26600 | 0.121 | 33000 | 0.442 | 23100 | 0.222 | 32600 | 0.0926 | 49700 | 0.647
3 | B3 |  | 5510 | 4510 | 1.35 | 4800 | 18.6 | 5310 | 141 | 17200 | 10.7 | 14500 |  | 12800 | 3.87 | 18100 | 
4 | B4 | 0.203 | 51700 | 6200 | 0.18 | 14800 | 0.166 | 36200 | 0.181 | 105000 | 0.529 | 37800 | 0.205 | 27300 | 0.0995 | 156000 | 0.535
5 | B5 |  | 23400 | 4410 | 16.9 | 8010 | 42.5 | 11200 | 8.21 | 23000 | 4.28 | 17300 | 2.16 | 16400 | 8.36 | 26300 | 
6 | B6 | 20.1 | 55800 | 5360 | 28.1 | 14000 | 10.8 | 28600 | 44.9 | 84700 | 40.1 | 31100 | 38.7 | 33700 | 49.8 | 95000 | 
7 | B7 | 0.759 | 28000 | 4400 | 1.01 | 14300 | 0.653 | 24200 | 0.104 | 29000 | 0.373 | 15900 | 26.5 | 32500 | 0.24 | 42900 | 
